Assay results taken from patent US20250313621A1.

Assays:
[1] = target: Wildtype human PAR2 expressed on cells (human) (UniProt P55085); experiment: flow cytometry on HEK293F-humanPAR2 (3.0E+06 cells/mL, w/ NaN3), overnight at about 5 C, S/BG
[2] = target: Cynomolgus PAR2 on BacMam-infected HEK293 cells (cynomolgus); experiment: flow cytometry on HEK293F-cynoPAR2 (3.0E+06 cells/mL, w/ NaN3), overnight at about 5 C, S/BG [continued]
[3] = target: Wildtype human PAR2 expressed on cells (human) (UniProt P55085); experiment: cell-based or functional assay

Sequence of Wildtype human PAR2 expressed on cells (human) (P55085 37-397 limits assumed): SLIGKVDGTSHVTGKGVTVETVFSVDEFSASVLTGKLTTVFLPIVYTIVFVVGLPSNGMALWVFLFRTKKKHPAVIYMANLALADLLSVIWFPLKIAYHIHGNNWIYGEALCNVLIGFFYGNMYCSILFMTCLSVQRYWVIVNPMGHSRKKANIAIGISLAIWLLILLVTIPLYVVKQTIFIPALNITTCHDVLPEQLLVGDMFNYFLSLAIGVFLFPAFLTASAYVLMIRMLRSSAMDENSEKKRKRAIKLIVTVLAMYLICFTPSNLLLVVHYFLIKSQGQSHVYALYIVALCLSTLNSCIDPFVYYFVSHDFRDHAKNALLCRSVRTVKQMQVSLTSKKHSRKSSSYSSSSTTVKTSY

Row | EC50 (read off the curve) [1] [nM] | EC50 (read off the curve) [2] [nM] | % Max Inhibition, PAR1 peptide SFLLR-NH2 challenge, IP-One [3] [%] | Binder
1 | 1 | 2 | – | Benchmark 3 IgG (antibody, from another filing, V domains shown) VH: QVQLVESGGGVVQPGRSLRLSCVASGFTFSRYGIHWVRQAPGKGLEWVIVISYDGINKYYADSVKGRFTISRDNSKNTVYLQMNSLRAEDTAVYYCAKGDFWSGYFDYWGQGTLVTVSS VL: DIVMTQTPLSSPVTLGQPASISCRSSQSLVHSDGNTYLSWLHQRPGQPPRLLIYKISNRFSGVPDRFSGSGAGTDFTLQISRVEAEDVGIYYCMQATQFPTFGGGTKVEIK
2 | – | – | 3 | Benchmark 2 (antibody, from another filing, V domains shown) VH: EVQLLESGGGLVQPGGSLRLSCAASGFTFSSYAMNWVRQAPGKGLEWVSTISYHGSHISYHDSVHHRFTISRDNSKNTLYLQMNSLRAEDTAVYYCARIHHDPMDVWGQGTLVTVSS VL: SIELTQPPSVSVSPGQTASITCSGDNLGKKYVQWYQQKPGQSPVLVIYDDSNRPSGIPERFSGSNSGNTATLTISGTQAMDEADYYCQTWDGNPTTGETNVFGGGTKLTVL
3 | 1 | 1 | – | Benchmark 4 IgG (antibody, from another filing, V domains shown) VH: EVQLVQSGAEVKKPGESLKISCKGSGYNFISHWIGWVRQMPGKGLEWMGMIYPGDSDTRYSPSFQGQVTISADKSINTAYLQWRSLKASDTAMYFCARHGGITGTTFYYDFGMDVWGQGTTVTVSS VL: SYELTQPPSVSVSPGQTARITCSGDALPKQYASWYQQKPGQAPLLVIYRDSERPSGLPERFSGSSSGTTVTLTISGVQAEDEADYYCQSADSGGSYVFGTGTKVTVL
